Key:
[1] = molecular target: T1, murine CCT5 (mouse, UniProt P80316 2-541); assay: immunoprecipitation and Western blot, B16-F10 cells
T1 construct: Endogenous CCT5 in B16-F10 melanoma cells; also called mouse CCT5

[2] = molecular target: T2, human CCT5 (human, UniProt P48643 2-541, limits assumed); assay: immunoprecipitation from cytosolic and plasma membrane lysate fractions, Western blot for CCT5
T2 construct: also called Chaperonin Containing TCP1 Subunit 5; TRiC protein CCT5
Description: Cytosolic and plasma membrane (surface) lysate preparations of SK-BR-3 and OvCar3 cells were probed by Western blot for CCT5 after immunoprecipitation with the antibody identified Example 1, or a negative control antibody, Panitumumab.

[3] = molecular target: RalGapa2 (UniProt Q2PPJ7 1-1873, limits assumed); assay: immunoprecipitation from OvCar8, SKBR3 and MIAPACA2 lysates, Western blot with rabbit polyclonal antibodies
Method: (§1) A. Immunoprecipitation and Mass Spectrometry to Identify Candidate Target Proteins Whole cell lysates of exemplary ovarian or leukemia cell lines were used for immunoprecipitation experiments with the antibody identified in Example 1. The identified antibody was covalently conjugated to magnetic epoxy beads, and 10 µg of bead-bound antibody were incubated with 1-2 mL whole cell lysate (at 1 mg protein/mL lysate) of ovarian carcinoma cell line (OvCar8) or acute myeloid leukemia cell line (SKM1). The cell lysates were also incubated with control antibodies known to bind the cell line, or beads alone. The immunoprecipitates were then washed and eluted first with low pH, and second with a cationic detergent elution buffer. The eluates were resolved by SDS-PAGE and stained with a protein stain to visualize the bands.
(§2) The immunoprecipitation with the identified antibody was repeated, with OvCar8 cells and also SKBR3 (breast cancer) and MIAPACA2 (pancreas carcinoma) cell lines. The eluates were resolved by SDS-PAGE, transferred for Western blot analysis using rabbit polyclonal antibodies specific to the top 10 candidate proteins identified in part A: RalGapa2, RalGapB, SPTAN1, IMPDH2, DNAJC13, SPTAN1, SNRNP200, PRPF8, CCT4, and CCT2. CCT2 and CCT4 were specifically detected in the immunoprecipitates from all assessed cancer cell lines. No bands corresponding to the other proteins were detected. CCT2 and CCT4 are both part of the TCP1 ring complex (TRiC).

[4] = molecular target: T3, RalGapB (UniProt Q86X10 1-1494, limits assumed); assay: as above
T3 sequence (looked up): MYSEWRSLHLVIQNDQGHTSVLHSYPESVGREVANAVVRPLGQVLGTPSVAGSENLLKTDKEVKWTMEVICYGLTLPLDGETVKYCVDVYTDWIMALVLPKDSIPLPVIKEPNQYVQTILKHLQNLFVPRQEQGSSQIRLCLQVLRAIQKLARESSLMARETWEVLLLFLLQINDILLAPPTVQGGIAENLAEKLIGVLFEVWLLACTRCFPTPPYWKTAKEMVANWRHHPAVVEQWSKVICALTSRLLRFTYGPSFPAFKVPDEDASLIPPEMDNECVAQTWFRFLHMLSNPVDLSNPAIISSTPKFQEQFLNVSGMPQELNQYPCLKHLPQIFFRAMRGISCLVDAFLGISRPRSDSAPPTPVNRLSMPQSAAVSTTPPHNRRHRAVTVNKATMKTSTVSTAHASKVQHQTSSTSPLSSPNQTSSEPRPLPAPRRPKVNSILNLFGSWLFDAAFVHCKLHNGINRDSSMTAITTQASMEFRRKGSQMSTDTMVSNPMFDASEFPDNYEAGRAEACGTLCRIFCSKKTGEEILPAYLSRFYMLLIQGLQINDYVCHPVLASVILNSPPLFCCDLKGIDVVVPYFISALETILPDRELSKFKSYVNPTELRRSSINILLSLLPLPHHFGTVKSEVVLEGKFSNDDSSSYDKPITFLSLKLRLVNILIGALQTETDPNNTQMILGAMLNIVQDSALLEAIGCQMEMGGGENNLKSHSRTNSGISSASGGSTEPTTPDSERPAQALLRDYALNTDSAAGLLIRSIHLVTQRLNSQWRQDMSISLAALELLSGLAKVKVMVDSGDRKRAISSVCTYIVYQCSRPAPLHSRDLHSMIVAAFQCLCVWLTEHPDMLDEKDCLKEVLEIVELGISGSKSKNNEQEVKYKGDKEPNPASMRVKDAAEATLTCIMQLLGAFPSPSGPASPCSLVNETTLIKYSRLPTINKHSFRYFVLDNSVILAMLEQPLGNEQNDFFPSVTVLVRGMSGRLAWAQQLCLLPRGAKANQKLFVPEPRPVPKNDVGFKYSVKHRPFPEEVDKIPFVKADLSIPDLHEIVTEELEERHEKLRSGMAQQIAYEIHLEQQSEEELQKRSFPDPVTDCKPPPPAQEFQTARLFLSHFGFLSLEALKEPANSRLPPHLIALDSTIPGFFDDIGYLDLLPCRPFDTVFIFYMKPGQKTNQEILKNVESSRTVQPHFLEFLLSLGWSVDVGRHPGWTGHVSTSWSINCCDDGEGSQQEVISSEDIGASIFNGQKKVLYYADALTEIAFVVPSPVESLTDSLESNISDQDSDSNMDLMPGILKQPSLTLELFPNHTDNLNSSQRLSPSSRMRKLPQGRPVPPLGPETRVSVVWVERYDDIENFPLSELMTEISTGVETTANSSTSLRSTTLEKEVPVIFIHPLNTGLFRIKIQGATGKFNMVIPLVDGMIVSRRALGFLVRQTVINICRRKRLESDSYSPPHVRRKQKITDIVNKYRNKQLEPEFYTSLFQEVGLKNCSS
Method: as §1, §2

[5] = molecular target: SPTAN1 (UniProt Q13813 1-2472, limits assumed); assay: as above
Method: as §1, §2

[6] = molecular target: DNAJC13 (UniProt O75165 1-2243); assay: as above
Method: as §1, §2

[7] = molecular target: SNRNP200 (UniProt O75643 1-2136, limits assumed); assay: as above
Method: as §1, §2

[8] = molecular target: PRPF8 (UniProt Q6P2Q9 2-2335); assay: as above
Method: as §1, §2

Chain of SNRNP200 (O75643 whole entry): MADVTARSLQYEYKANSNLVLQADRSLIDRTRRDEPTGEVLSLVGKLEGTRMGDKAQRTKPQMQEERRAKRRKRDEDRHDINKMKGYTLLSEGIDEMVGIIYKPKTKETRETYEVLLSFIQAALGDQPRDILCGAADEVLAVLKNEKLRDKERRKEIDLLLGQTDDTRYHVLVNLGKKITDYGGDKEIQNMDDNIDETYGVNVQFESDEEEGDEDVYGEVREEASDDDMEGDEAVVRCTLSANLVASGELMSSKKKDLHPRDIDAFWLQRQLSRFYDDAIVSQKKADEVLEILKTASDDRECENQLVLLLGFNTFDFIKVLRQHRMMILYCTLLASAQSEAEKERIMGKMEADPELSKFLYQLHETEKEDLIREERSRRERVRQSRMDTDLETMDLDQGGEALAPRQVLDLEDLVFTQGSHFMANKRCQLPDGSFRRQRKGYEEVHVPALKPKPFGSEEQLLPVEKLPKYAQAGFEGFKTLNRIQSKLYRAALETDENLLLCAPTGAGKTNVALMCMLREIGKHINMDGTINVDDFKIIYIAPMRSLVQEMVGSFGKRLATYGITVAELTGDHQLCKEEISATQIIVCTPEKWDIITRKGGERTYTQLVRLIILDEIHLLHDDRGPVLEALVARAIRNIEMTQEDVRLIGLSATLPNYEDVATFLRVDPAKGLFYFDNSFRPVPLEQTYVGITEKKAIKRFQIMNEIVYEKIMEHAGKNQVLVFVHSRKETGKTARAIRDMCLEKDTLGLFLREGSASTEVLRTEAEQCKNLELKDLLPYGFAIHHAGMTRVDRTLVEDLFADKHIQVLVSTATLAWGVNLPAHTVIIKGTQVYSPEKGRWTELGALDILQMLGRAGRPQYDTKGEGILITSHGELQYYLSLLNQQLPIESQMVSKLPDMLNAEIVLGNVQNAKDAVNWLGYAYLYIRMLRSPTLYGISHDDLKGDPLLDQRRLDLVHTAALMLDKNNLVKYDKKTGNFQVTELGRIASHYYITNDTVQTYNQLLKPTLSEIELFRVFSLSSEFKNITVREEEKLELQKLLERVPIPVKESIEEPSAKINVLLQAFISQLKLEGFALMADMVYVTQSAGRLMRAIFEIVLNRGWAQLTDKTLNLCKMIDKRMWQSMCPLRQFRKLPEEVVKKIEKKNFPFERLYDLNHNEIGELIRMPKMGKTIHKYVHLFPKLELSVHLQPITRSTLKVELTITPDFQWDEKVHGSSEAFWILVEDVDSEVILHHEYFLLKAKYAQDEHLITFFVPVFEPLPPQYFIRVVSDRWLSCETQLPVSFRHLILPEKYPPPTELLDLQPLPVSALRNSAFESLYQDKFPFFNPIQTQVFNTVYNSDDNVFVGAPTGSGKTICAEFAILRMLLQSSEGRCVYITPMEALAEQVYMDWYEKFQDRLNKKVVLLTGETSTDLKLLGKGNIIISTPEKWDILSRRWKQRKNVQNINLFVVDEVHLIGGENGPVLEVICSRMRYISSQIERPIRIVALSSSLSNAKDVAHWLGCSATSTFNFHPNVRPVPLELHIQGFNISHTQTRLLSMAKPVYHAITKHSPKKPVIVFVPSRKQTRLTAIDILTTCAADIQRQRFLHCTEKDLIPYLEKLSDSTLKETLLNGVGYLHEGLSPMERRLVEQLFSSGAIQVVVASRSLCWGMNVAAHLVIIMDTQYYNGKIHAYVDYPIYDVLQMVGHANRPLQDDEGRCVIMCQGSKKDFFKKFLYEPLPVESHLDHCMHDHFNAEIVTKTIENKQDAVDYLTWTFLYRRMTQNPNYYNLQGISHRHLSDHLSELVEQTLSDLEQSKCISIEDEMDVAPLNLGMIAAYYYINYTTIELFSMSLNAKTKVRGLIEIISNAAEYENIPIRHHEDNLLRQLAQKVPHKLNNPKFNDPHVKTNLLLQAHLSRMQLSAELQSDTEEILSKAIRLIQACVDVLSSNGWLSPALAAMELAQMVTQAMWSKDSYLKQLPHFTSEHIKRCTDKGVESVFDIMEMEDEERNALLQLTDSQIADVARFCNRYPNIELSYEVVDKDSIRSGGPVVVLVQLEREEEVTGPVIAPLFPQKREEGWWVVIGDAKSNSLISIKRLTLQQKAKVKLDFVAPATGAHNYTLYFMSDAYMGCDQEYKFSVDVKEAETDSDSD
T1 sequence (P80316 2-541 limits assumed): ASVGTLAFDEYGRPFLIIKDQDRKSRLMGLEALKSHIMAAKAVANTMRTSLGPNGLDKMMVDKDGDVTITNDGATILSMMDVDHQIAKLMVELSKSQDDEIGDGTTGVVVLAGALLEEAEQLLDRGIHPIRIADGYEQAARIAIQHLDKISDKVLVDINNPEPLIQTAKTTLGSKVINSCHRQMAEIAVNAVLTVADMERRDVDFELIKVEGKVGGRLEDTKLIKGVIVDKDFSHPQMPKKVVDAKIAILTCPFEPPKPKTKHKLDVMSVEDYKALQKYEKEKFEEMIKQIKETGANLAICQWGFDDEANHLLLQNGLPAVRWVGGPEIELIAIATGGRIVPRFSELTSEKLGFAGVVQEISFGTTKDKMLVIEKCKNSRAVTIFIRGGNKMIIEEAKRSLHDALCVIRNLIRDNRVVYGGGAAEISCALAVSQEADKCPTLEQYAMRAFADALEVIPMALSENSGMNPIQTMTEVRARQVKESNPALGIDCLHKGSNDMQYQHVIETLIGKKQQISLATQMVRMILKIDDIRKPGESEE
T2 sequence (P48643 2-541 limits assumed): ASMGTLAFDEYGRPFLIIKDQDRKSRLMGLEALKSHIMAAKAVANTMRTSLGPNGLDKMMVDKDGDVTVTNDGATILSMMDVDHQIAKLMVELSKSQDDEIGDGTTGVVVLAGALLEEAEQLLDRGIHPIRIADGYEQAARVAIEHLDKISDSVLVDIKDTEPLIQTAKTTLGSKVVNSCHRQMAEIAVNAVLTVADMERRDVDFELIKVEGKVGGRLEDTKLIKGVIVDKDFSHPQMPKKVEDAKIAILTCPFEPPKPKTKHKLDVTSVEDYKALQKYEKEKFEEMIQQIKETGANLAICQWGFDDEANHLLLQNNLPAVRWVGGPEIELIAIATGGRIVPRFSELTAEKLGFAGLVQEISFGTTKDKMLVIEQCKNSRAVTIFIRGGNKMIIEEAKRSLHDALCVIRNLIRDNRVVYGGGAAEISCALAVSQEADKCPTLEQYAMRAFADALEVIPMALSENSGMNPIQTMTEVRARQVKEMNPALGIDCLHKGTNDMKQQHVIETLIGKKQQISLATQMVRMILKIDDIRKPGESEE
Chain of RalGapa2 (Q2PPJ7 whole entry): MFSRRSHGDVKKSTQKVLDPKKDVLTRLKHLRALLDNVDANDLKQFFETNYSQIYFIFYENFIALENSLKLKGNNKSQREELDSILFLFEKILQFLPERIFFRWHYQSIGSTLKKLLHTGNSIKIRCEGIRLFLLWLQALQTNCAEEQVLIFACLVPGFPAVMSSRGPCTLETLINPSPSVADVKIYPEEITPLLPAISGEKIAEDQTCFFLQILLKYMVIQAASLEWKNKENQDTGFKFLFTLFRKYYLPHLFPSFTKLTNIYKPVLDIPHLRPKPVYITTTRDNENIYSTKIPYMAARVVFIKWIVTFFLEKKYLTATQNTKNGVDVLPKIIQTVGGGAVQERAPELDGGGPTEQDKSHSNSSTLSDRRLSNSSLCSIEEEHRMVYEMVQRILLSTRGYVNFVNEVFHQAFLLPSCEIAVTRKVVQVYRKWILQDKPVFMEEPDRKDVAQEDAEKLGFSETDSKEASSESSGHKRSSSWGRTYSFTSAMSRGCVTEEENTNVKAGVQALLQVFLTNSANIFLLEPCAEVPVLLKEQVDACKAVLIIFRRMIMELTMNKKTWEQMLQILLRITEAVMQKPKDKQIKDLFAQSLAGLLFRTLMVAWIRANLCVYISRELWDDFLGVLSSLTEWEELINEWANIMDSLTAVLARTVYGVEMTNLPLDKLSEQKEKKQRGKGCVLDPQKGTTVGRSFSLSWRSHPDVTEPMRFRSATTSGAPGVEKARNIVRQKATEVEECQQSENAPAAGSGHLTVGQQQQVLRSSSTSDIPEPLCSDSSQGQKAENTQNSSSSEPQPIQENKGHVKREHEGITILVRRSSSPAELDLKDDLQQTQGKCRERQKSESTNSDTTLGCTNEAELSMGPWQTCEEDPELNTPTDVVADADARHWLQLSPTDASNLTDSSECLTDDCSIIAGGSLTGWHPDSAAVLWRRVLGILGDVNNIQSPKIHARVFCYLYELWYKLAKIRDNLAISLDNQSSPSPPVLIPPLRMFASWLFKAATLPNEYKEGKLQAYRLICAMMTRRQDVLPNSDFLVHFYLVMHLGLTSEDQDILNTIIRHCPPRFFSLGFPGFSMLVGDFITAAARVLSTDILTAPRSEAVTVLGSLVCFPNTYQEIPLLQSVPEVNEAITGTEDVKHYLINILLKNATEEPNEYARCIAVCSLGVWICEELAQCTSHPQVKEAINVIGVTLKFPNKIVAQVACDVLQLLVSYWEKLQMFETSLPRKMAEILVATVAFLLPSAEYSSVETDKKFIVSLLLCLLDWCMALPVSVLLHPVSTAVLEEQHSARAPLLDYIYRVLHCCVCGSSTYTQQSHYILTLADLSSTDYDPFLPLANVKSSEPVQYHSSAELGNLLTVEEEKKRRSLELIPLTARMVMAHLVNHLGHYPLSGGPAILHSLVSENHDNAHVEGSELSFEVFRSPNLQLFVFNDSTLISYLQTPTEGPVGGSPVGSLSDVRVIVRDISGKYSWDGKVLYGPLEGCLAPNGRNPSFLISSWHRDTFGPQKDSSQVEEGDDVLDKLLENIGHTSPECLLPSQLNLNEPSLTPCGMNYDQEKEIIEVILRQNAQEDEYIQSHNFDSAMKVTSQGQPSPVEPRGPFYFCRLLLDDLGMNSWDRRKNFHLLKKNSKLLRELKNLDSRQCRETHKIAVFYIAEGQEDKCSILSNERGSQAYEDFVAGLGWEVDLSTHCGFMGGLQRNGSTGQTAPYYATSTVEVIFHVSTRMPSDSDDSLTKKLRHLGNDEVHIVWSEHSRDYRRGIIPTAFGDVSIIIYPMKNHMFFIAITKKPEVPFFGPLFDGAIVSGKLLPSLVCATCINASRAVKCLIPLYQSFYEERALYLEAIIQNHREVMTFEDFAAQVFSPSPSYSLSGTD

B1: exemplary anti-CCT5 antibody identified in Example 1 (antibody, V domains shown)
VH: EVQLVESGGGLVQPGGSLRLSCAASGFTFSSYSMNWVRQAPGKGLEWVSYISSSSSTIYYADSVKGRFTISRDNAKNSLYLQMNSLRDEDTAVYYCARDFKGDCSSTSCYRGGYYYYYGMDVWGQGTTVTVSS
VL: SYELTQPPSVSVSPGQTASITCFGDQLGDKYVSWYQKKPGQSPVLVIYQDANRPSGIPERFSGSNSGNTATLTIRGTQNLDEADYYCQTWGTTTALFGGGTKLTVL
notes: For immunoprecipitation it was covalently conjugated to magnetic epoxy beads; also called the identified antibody
B1: binds [1]; binds [2]; no binding [3]. B1: no binding [4]; no binding [5]; no binding [6]. B1: no binding [7]; no binding [8].
